{"source": "patent US20230272048A1", "about": "(UNIVERSITY OF MELBOURNE, published 2023)", "binders": {"B1": {"name": "1842 heavy chain with NC-Cow1 light chain (antibody)", "VH": "KVQLQESGPSLVKPSQTLSLTCTASGFSLSDKAVGWVRQAPGQALEWLGSIDTGGNADYNPGLKSRLSITKDNAKSQVSLSVSSVTTEGSATYYCSTVHQKTLRSCPSDYPYICDCEDTGSHCCRATNCPYYCNHGRDRMCTGRTYTYEWHVEAWGQGLLVTVSS", "VL": "HSYELTQPSSVSGSLGQRVSVTCSGSSSNVGNGYVSWYQLIPGSAPRTIIYGDTSRASGVPERFSGSRSGNTATLTISSLQAEDEADFFCASPDDSSSNAVFGSGTTLTVL"}, "B2": {"name": "1872 heavy chain with NC-Cow1 light chain (antibody)", "VH": "KVQLRESGPSLVKPSQTLSLTCTASGFSLSDKAVGWVRQAPGQPLEWLGTIDTTGNAVYNPGLKSRLSITKDNSKSQVSLSLSSVTTEDSATYHCSTVHQKTRRSCPSDYSFICDCEGTGSHCCRASNCPYYCNYGRDRMCTGRSNIHEWHVDAWGQGLLVTVSS", "VL": "B1 VL"}, "B3": {"name": "VRC01 (antibody, V domains shown)", "VH": "QVQLVQSGGQMKKPGESMRISCRASGYEFIDCTLNWIRLAPGKRPEWMGWLKPRGGAVNYARPLQGRVTMTRDVYSDTAFLELRSLTVDDTAVYFCTRGKNCDYNWDFEHWGRGTPVIVSS", "VL": "EIVLTQSPGTLSLSPGETAIISCRTSQYGSLAWYQQRPGQAPRLVIYSGSTRAAGIPDRFSGSRWGPDYNLTISNLESGDFGVYYCQQYEFFGQGTKVQVDI"}}, "biological_target": "AD8 WT Env (gp160, from lysed pseudovirions / on pseudovirus) (HIV-1 AD8, clade B)", "assay": "cell-based or functional assay", "data": [{"binder": "B1", "values": [{"measurement": "IC50 (read off the curve); axis Neutralisation (%), panel AD8", "result": "~5", "unit": "ng/mL"}]}, {"binder": "B2", "values": [{"measurement": "IC50 (read off the curve); axis Neutralisation (%), panel AD8", "result": "~7", "unit": "ng/mL"}]}, {"binder": "B3", "values": [{"measurement": "IC50 (read off the curve); axis Neutralisation (%), panel AD8", "result": "~300", "unit": "ng/mL"}]}]}
